Results taken from the supplement of paper PMC5998384.

Columns and labels:
HeLa Kyoto [1] = assay: thermal stability score vs G1/S (z-score of summed log2 fold changes over temperatures); higher = more thermally stable than in G1/S
HeLa Kyoto [2] = assay: melting temperature (median over replicates), in situ; higher = more thermally stable
HeLa Kyoto [3] = assay: solubility change mitosis vs G1/S (difference of NP-40 vs SDS log2 ratios) (log2 ratio difference); higher = more soluble in mitosis
HeLa Kyoto [4] = assay: solubility in G1/S (NP-40 vs SDS abundance) (log2 ratio); higher = more soluble; conditions: cell cycle stage: G1/S
[5] = cell cycle stage: early G1 (4.5 h after nocodazole release)
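For melting temperature (median over replicates), in situ in this document: HeLa Kyoto cells synchronized by double thymidine or nocodazole block, proteins quantified by TMT10plex mass spectrometry, three independent biological replicates.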
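For solubility change mitosis vs G1/S (difference of NP-40 vs SDS log2 ratios) in this document: synchronized HeLa Kyoto cells (double thymidine block for G1/S, nocodazole release for mitosis), protein amounts in NP-40 versus SDS lysates quantified by mass spectrometry, three biological replicates.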
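For solubility in G1/S (NP-40 vs SDS abundance) in this document: HeLa Kyoto cells arrested at G1/S by double thymidine block, proteins quantified by TMT10plex mass spectrometry in mild NP-40 versus SDS extracts, three biological replicates.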
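For thermal stability score vs G1/S (z-score of summed log2 fold changes over temperatures) in this document: synchronized HeLa Kyoto cells, proteins quantified by TMT10plex mass spectrometry, three biological replicates, mitosis taken 0.5 h after nocodazole release, G1/S directly after double thymidine block.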

Sequence	thermal stability score (HeLa Kyoto [1]; [5])	thermal stability score (HeLa Kyoto [1]; cell cycle stage: mitosis)	melting temperature (HeLa Kyoto [2]; cell cycle stage: G1/S) [°C]	melting temperature (HeLa Kyoto [2]; cell cycle stage: mitosis) [°C]	solubility change mitosis (log2) (HeLa Kyoto [3])	solubility in G1/S (log2) (HeLa Kyoto [4])
MDGSGPFSCPICLEPLREPVTLPCGHNFCLACLGALWPHRGASGAGGPGGAARCPLCQEPFPDGLQLRKNHTLSELLQLRQGSGPGSGPGPAPALAPEPSAPSALPSVPEPSAPCAPEPWPAGEEPVRCDACPEGAALPAALSCLSCLASFCPAHLGPHERSPALRGHRLVPPLRRLEESLCPRHLRPLERYCRAERVCLCEACAAQEHRGHELVPLEQERALQEAEQSKVLSAVEDRMDELGAGIAQSRRTVALIKSAAVAERERVSRLFADAAAALQGFQTQVLGFIEEGEAAMLGRSQGDLRRQEEQRSRLSRARQNLSQVPEADSVSFLQELLALRLALEDGCGPGPGPPRELSFTKSSQAVRAVRDMLAVACVNQWEQLRGPGGNEDGPQKLDSEADAEPQDLESTNLLESEAPRDYFLKFAYIVDLDSDTADKFLQLFGTKGVKRVLCPINYPLSPTRFTHCEQVLGEGALDRGTYYWEVEIIEGWVSMGVMAEDFSPQEPYDRGRLGRNAHSCCLQWNGRSFSVWFHGLEAPLPHPFSPTVGVCLEYADRALAFYAVRDGKMSLLRRLKASRPRRGGIPASPIDPFQSRLDSHFAGLFTHRLKPAFFLESVDAHLQIGPLKKSCISVLKRR [TRIM47]	0.521	1.84	47.8	46.7	-0.052	0.0943
MDIRKFFGVIPSGKKLVSETVKKNEKTKSDEETLKAKKGIKEIKVNSSRKEDDFKQKQPSKKKRIIYDSDSESEETLQVKNAKKPPEKLPVSSKPGKISRQDPVTYISETDEEDDFMCKKAASKSKENGRSTNSHLGTSNMKKNEENTKTKNKPLSPIKLTPTSVLDYFGTGSVQRSNKKMVASKRKELSQNTDESGLNDEAIAKQLQLDEDAELERQLHEDEEFARTLAMLDEEPKTKKARKDTEAGETFSSVQANLSKAEKHKYPHKVKTAQVSDERKSYSPRKQSKYESSKESQQHSKSSADKIGEVSSPKASSKLAIMKRKEESSYKEIEPVASKRKENAIKLKGETKTPKKTKSSPAKKESVSPEDSEKKRTNYQAYRSYLNREGPKALGSKEIPKGAENCLEGLIFVITGVLESIERDEAKSLIERYGGKVTGNVSKKTNYLVMGRDSGQSKSDKAAALGTKIIDEDGLLNLIRTMPGKKSKYEIAVETEMKKESKLERTPQKNVQGKRKISPSKKESESKKSRPTSKRDSLAKTIKKETDVFWKSLDFKEQVAEETSGDSKARNLADDSSENKVENLLWVDKYKPTSLKTIIGQQGDQSCANKLLRWLRNWQKSSSEDKKHAAKFGKFSGKDDGSSFKAALLSGPPGVGKTTTASLVCQELGYSYVELNASDTRSKSSLKAIVAESLNNTSIKGFYSNGAASSVSTKHALIMDEVDGMAGNEDRGGIQELIGLIKHTKIPIICMCNDRNHPKIRSLVHYCFDLRFQRPRVEQIKGAMMSIAFKEGLKIPPPAMNEIILGANQDIRQVLHNLSMWCARSKALTYDQAKADSHRAKKDIKMGPFDVARKVFAAGEETAHMSLVDKSDLFFHDYSIAPLFVQENYIHVKPVAAGGDMKKHLMLLSRAADSICDGDLVDSQIRSKQNWSLLPAQAIYASVLPGELMRGYMTQFPTFPSWLGKHSSTGKHDRIVQDLALHMSLRTYSSKRTVNMDYLSLLRDALVQPLTSQGVDGVQDVVALMDTYYLMKEDFENIMEISSWGGKPSPFSKLDPKVKAAFTRAYNKEAHLTPYSLQAIKASRHSTSPSLDSEYNEELNEDDSQSDEKDQDAIETDAMIKKKTKSSKPSKPEKDKEPRKGKGKSSKK [RFC1]	3.61	4.94	47.2	49.5	0.447	-0.641
MDIRPNHTIYINNMNDKIKKEELKRSLYALFSQFGHVVDIVALKTMKMRGQAFVIFKELGSSTNALRQLQGFPFYGKPMRIQYAKTDSDIISKMRGTFADKEKKKEKKKAKTVEQTATTTNKKPGQGTPNSANTQGNSTPNPQVPDYPPNYILFLNNLPEETNEMMLSMLFNQFPGFKEVRLVPGRHDIAFVEFENDGQAGAARDALQGFKITPSHAMKITYAKK [SNRPB2]	-2.85	-4.3	54.2	53.2	0.472	0.221
MDIYDTQTLGVVVFGGFMVVSAIGIFLVSTFSMKETSYEEALANQRKEMAKTHHQKVEKKKKEKTVEKKGKTKKKEEKPNGKIPDHDPAPNVTVLLREPVRAPAVAVAPTPVQPPIIVAPVATVPAMPQEKLASSPKDKKKKEKKVAKVEPAVSSVVNSIQVLTSKAAILETAPKEVPMVVVPPVGAKGNTPATGTTQGKKAEGTQNQSKKAEGAPNQGRKAEGTPNQGKKTEGTPNQGKKAEGTPNQGKKAEGTPNQGKKAEGAQNQGKKVDTTPNQGKKVEGAPTQGRKAEGAQNQAKKVEGAQNQGKKAEGAQNQGKKGEGAQNQGKKAEGAQNQGKKAEGAQNQGKKAEGAQNQGKKAEGAQNQGKKAEGAQNQGKKAEGAQNQGKKVEGAQNQGKKAEGAQNQGKKAEGAQNQGKKAEGAQNQGKKAEGAQNQGKKAEGAQNQGKKAEGAQNQGKKAEGAQNQGKKVEGAQNQGKKAEGAQNQGKKAEGAQNQGKKAEGAQNQGQKGEGAQNQGKKTEGAQGKKAERSPNQGKKGEGAPIQGKKADSVANQGTKVEGITNQGKKAEGSPSEGKKAEGSPNQGKKADAAANQGKKTESASVQGRNTDVAQSPEAPKQEAPAKKKSGSKKKGEPGPPDADGPLYLPYKTLVSTVGSMVFNEGEAQRLIEILSEKAGIIQDTWHKATQKGDPVAILKRQLEEKEKLLATEQEDAAVAKSKLRELNKEMAAEKAKAAAGEAKVKKQLVAREQEITAVQARMQASYREHVKEVQQLQGKIRTLQEQLENGPNTQLARLQQENSILRDALNQATSQVESKQNAELAKLRQELSKVSKELVEKSEAVRQDEQQRKALEAKAAAFEKQVLQLQASHRESEEALQKRLDEVSRELCHTQSSHASLRADAEKAQEQQQQMAELHSKLQSSEAEVRSKCEELSGLHGQLQEARAENSQLTERIRSIEALLEAGQARDAQDVQASQAEADQQQTRLKELESQVSGLEKEAIELREAVEQQKVKNNDLREKNWKAMEALATAEQACKEKLLSLTQAKEESEKQLCLIEAQTMEALLALLPELSVLAQQNYTEWLQDLKEKGPTLLKHPPAPAEPSSDLASKLREAEETQSTLQAECDQYRSILAETEGMLRDLQKSVEEEEQVWRAKVGAAEEELQKSRVTVKHLEEIVEKLKGELESSDQVREHTSHLEAELEKHMAAASAECQNYAKEVAGLRQLLLESQSQLDAAKSEAQKQSDELALVRQQLSEMKSHVEDGDIAGAPASSPEAPPAEQDPVQLKTQLEWTEAILEDEQTQRQKLTAEFEEAQTSACRLQEELEKLRTAGPLESSETEEASQLKERLEKEKKLTSDLGRAATRLQELLKTTQEQLAREKDTVKKLQEQLEKAEDGSSSKEGTSV [RRBP1]	2.64	7.14	53.2	53.7	0.448	0.0657
